Assay results taken from article PMC9482650, “Quantitative fragmentomics allow affinity mapping of interactomes” (Nature Communications, 2022).
Blank lines part the entries; values can stand above or below the binder they belong to.

Assays:
Assay in all cases: holdup assay
Parameters in all cases: key: below the threshold = too weak to quantify, mostly under pKd 3.1 to 4
Conditions in all cases: plain residues with an end cap or a label only (N-terminal biotin on a linker: ttds)
PICK1, Q9NRD5 = target: PICK1, Q9NRD5
Sequence of PICK1, Q9NRD5 (Q9NRD5 17-115): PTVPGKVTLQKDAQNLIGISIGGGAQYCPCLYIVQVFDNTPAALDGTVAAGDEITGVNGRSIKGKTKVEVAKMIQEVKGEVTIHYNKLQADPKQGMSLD

PTPN3, P26045 = target: PTPN3, P26045
Sequence of PTPN3, P26045 (P26045 505-587): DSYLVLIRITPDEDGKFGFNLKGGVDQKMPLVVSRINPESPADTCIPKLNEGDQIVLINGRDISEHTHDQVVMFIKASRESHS

SNX27, Q96L92 = target: SNX27, Q96L92
PDLIM1, O00151 = target: PDLIM1, O00151
Sequence of PDLIM1, O00151 (O00151 1-87): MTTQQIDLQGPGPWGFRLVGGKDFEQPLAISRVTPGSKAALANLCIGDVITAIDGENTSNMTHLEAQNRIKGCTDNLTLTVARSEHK

TJP1_3, Q07157 = target: TJP1_3, Q07157
Sequence of TJP1_3, Q07157 (Q07157 416-512): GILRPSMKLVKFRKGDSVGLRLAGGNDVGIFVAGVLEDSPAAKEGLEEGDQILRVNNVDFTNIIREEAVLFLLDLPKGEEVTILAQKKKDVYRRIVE

NHERF3_1, Q5T2W1 = target: T1, NHERF3_1, Q5T2W1
T1 sequence (Q5T2W1 4-100, limits assumed, looked up): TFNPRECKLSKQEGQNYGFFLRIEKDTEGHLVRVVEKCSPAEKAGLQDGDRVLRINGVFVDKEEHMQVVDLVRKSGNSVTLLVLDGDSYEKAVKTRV

MPDZ_10, O75970 = target: T2, MPDZ_10, O75970
T2 sequence (O75970 1624-1722, limits assumed, looked up): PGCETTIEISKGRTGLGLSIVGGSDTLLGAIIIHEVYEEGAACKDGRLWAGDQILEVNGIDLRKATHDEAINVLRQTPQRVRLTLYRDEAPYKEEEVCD

NHERF4_1, Q86UT5-2 = target: NHERF4_1, Q86UT5-2
Sequence of NHERF4_1, Q86UT5-2 (Q86UT5 other isoform, or with tags, fused parts or gaps): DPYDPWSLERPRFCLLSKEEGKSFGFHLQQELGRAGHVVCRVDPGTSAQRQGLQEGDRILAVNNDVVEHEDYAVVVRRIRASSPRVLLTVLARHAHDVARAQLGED

DLG3_2, Q92796 = target: T3, DLG3_2, Q92796
T3 sequence (Q92796 221-321, limits assumed, looked up): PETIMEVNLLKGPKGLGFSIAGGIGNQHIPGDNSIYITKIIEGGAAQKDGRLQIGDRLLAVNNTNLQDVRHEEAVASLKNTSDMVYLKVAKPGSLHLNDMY

NHERF4_4, Q86UT5 = target: NHERF4_4, Q86UT5
Sequence of NHERF4_4, Q86UT5 (Q86UT5 464-550): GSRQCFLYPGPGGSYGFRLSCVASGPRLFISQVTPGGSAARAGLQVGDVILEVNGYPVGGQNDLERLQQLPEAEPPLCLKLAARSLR

MAGI2_6, Q86UL8 = target: MAGI2_6, Q86UL8
Sequence of MAGI2_6, Q86UL8 (Q86UL8 1141-1229): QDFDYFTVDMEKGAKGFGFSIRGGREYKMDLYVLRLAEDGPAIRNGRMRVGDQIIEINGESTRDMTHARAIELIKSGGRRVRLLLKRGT

NHERF2_2, Q15599 = target: NHERF2_2, Q15599
Sequence of NHERF2_2, Q15599 (Q15599 142-238): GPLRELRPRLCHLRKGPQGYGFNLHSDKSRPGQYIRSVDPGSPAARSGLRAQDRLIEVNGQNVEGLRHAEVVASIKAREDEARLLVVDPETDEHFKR

PDZD2_2, O15018 = target: T4, PDZD2_2, O15018
T4 sequence (O15018 329-429, limits assumed, looked up): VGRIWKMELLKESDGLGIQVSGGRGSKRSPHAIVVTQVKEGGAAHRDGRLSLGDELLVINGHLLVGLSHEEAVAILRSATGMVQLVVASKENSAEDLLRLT

APBA1_1, Q02410 = target: T5, APBA1_1, Q02410
T5 sequence (Q02410 651-752, limits assumed, looked up): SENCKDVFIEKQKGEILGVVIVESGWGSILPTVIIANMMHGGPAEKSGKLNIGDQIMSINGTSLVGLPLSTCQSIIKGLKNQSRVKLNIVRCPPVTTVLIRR

FRMPD3, Q5JV73 = target: FRMPD3, Q5JV73
Sequence of FRMPD3, Q5JV73 (Q5JV73 12-100): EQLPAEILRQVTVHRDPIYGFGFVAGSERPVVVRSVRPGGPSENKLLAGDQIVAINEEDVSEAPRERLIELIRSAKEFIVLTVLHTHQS

LIN7B, Q9HAP6 = target: T6, LIN7B, Q9HAP6
T6 sequence (Q9HAP6 88-185, limits assumed, looked up): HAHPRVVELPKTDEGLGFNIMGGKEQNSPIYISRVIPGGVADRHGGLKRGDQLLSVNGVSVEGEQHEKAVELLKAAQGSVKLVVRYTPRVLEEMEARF

SIPA1L2, Q9P2F8 = target: T7, SIPA1L2, Q9P2F8
T7 sequence (Q9P2F8 945-1036, limits assumed, looked up): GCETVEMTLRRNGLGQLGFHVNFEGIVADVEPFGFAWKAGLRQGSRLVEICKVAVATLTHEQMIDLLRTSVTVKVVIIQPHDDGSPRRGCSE

LAP2, Q96RT1 = target: LAP2, Q96RT1
Sequence of LAP2, Q96RT1 (Q96RT1 other isoform, or with tags, fused parts or gaps): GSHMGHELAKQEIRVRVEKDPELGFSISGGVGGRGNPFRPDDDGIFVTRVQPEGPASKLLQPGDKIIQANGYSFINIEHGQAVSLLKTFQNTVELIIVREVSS

DLG3_1, Q92796 = target: T8, DLG3_1, Q92796
T8 sequence (Q92796 125-227, limits assumed, looked up): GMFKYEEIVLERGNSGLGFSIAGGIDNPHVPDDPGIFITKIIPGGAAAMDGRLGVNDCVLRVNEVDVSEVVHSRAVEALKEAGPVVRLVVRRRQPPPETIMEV

MPDZ_5, O75970 = target: T9, MPDZ_5, O75970
T9 sequence (O75970 695-796, limits assumed, looked up): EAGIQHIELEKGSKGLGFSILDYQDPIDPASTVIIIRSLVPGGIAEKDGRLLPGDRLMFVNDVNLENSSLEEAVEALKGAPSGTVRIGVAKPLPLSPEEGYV

NHERF3_4, Q5T2W1 = target: T10, NHERF3_4, Q5T2W1
T10 sequence (Q5T2W1 373-468, limits assumed, looked up): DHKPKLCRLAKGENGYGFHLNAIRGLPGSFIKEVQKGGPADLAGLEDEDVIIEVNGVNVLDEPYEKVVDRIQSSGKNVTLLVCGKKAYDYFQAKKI

GRIP1_5, Q9Y3R0 = target: T11, GRIP1_5, Q9Y3R0
T11 sequence (Q9Y3R0 568-668, limits assumed, looked up): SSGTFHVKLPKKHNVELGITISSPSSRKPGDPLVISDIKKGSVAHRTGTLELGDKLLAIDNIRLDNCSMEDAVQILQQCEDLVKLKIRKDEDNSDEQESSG

TJP2_1, Q9UDY2 = target: TJP2_1, Q9UDY2
Sequence of TJP2_1, Q9UDY2 (Q9UDY2 24-128): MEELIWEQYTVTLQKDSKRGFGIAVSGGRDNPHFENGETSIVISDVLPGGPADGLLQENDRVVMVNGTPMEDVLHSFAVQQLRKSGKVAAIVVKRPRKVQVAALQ

Inadl_10, Q8NI35 = target: Inadl_10, Q8NI35
Sequence of Inadl_10, Q8NI35 (Q8NI35 1673-1763): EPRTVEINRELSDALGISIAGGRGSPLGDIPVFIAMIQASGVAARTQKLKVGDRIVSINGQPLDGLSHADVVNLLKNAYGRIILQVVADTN

Inadl_1, Q8NI35 = target: Inadl_1, Q8NI35
Sequence of Inadl_1, Q8NI35 (Q8NI35 113-229): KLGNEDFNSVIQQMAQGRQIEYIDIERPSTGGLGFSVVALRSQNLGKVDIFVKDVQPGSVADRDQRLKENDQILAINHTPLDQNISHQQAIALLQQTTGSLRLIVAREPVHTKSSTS

FRMPD2_1, Q68DX3 = target: FRMPD2_1, Q68DX3
Sequence of FRMPD2_1, Q68DX3 (Q68DX3 770-861): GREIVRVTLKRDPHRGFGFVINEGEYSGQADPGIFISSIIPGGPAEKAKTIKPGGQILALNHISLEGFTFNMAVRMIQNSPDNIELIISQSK

DLG1_2, Q12959 = target: DLG1_2, Q12959
Sequence of DLG1_2, Q12959 (Q12959 314-412): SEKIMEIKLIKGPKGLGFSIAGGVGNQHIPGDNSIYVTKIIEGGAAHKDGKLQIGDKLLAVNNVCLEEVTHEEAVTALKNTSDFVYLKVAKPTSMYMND

pKd (PICK1, Q9NRD5): below the threshold
pKd (PTPN3, P26045): 4.65
pKd (SNX27, Q96L92): below the threshold
pKd (PDLIM1, O00151): below the threshold
pKd (TJP1_3, Q07157): below the threshold
pKd (NHERF3_1, Q5T2W1): below the threshold
pKd (MPDZ_10, O75970): below the threshold
pKd (NHERF4_1, Q86UT5-2): below the threshold
pKd (DLG3_2, Q92796): 4.28
pKd (NHERF4_4, Q86UT5): below the threshold
pKd (MAGI2_6, Q86UL8): below the threshold
pKd (NHERF2_2, Q15599): below the threshold
pKd (PDZD2_2, O15018): 4.26
pKd (APBA1_1, Q02410): below the threshold
pKd (FRMPD3, Q5JV73): below the threshold
pKd (LIN7B, Q9HAP6): below the threshold
pKd (SIPA1L2, Q9P2F8): below the threshold
pKd (LAP2, Q96RT1): below the threshold
pKd (DLG3_1, Q92796): below the threshold
pKd (MPDZ_5, O75970): below the threshold
pKd (NHERF3_4, Q5T2W1): below the threshold
pKd (GRIP1_5, Q9Y3R0): below the threshold
pKd (TJP2_1, Q9UDY2): below the threshold
pKd (Inadl_10, Q8NI35): below the threshold
pKd (Inadl_1, Q8NI35): below the threshold
pKd (FRMPD2_1, Q68DX3): below the threshold
pKd (DLG1_2, Q12959): 4.61
B1: KCNJ12, Q14500 (peptide)
chain: QRPYRRESEI

pKd (PICK1, Q9NRD5): below the threshold
pKd (PTPN3, P26045): 4.69
pKd (SNX27, Q96L92): 4.49
pKd (PDLIM1, O00151): below the threshold
pKd (TJP1_3, Q07157): below the threshold
pKd (NHERF3_1, Q5T2W1): below the threshold
pKd (MPDZ_10, O75970): below the threshold
pKd (NHERF4_1, Q86UT5-2): below the threshold
pKd (DLG3_2, Q92796): 4.97
pKd (NHERF4_4, Q86UT5): below the threshold
pKd (MAGI2_6, Q86UL8): 4.39
pKd (NHERF2_2, Q15599): below the threshold
pKd (PDZD2_2, O15018): 4.12
pKd (APBA1_1, Q02410): below the threshold
pKd (FRMPD3, Q5JV73): below the threshold
pKd (LIN7B, Q9HAP6): below the threshold
pKd (SIPA1L2, Q9P2F8): below the threshold
pKd (LAP2, Q96RT1): 4.41
pKd (DLG3_1, Q92796): 4.13
pKd (MPDZ_5, O75970): below the threshold
pKd (NHERF3_4, Q5T2W1): below the threshold
pKd (GRIP1_5, Q9Y3R0): below the threshold
pKd (TJP2_1, Q9UDY2): below the threshold
pKd (Inadl_10, Q8NI35): below the threshold
pKd (Inadl_1, Q8NI35): below the threshold
pKd (FRMPD2_1, Q68DX3): below the threshold
pKd (DLG1_2, Q12959): 5.18
B2: ARHGEF26, Q96DR7 (peptide)
chain: GRLLGLETNV
